Paper PMC10640585, “The E3 ligase Riplet promotes RIG-I signaling independent of RIG-I oligomerization” (Nature Communications, 2023)
One block for each binder: values may come before it.

Assays:
[1] = biological target: T1, biotinylated Avi-tagged RIG-I (human, UniProt O95786 1-925, biotin on the Avi tag (by BirA)); assay: SPR; biotinylated RIG-I pre-incubated with p3dsRNA24 (2.4:1, 4 °C overnight; two RIG-I on one RNA) immobilised on streptavidin SADH chip; Riplet constructs 0.125-10 µM in HBS-EP+, 50 µl/min, dissociation 180 s, OneStep mode, 1:1 model; details: both partners purified
T1 construct: RIG-I (Retinoic acid inducible gene-I), human, full-length; Immobilised on the SPR chip as apo protein or pre-incubated with p3SLR14 (1:1.5) or p3dsRNA24 (2.4:1; two RIG-I on one RNA); also called Avi-RIG-I; biotinylated RIG-I; source: E. coli Rosetta 2(DE3), purified (Ni-NTA, ULP1, heparin, size exclusion), biotinylated by BirA, size exclusion; not shown: 6xHis, N-terminal, cleaved; SUMO, …
T1 sequence (looked up): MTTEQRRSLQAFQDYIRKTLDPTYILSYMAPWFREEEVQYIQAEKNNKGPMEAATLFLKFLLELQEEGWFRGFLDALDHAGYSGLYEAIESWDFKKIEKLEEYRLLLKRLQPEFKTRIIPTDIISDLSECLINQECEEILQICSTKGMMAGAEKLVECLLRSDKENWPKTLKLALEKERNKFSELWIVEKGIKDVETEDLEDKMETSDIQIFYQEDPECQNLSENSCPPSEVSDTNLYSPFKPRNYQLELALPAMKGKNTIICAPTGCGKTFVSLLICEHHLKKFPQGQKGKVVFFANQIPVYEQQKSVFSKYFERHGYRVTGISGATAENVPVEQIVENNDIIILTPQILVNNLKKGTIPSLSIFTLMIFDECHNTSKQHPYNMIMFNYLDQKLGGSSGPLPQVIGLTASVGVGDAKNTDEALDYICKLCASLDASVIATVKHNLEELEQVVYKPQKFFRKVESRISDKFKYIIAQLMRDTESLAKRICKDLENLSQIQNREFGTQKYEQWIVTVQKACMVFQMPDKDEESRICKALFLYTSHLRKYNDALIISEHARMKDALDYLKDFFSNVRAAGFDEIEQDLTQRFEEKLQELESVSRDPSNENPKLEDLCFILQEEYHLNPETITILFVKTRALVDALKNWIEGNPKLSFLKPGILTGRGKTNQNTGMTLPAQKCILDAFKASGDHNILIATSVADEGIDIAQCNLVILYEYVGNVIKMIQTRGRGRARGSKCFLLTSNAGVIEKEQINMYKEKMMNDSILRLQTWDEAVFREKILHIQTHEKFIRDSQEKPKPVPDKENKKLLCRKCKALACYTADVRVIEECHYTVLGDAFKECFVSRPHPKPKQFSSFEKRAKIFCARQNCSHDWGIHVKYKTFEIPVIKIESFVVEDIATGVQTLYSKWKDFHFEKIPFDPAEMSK

[2] = biological target: T1, biotinylated Avi-tagged RIG-I; assay: SPR; biotinylated RIG-I pre-incubated with p3SLR14 (1:1.5, 4 °C overnight) immobilised on streptavidin SADH chip; Riplet constructs 0.125-10 µM in HBS-EP+, 50 µl/min, dissociation 180 s, OneStep mode, 1:1 model; details: both partners purified
[3] = biological target: T2, RIG-I;Riplet (human;human, UniProt O95786;Q8IUD6 1-925;1-432, |); assay: cryo-EM; end-end complex, 2 RIG-I:1 RNA:1 Riplet dimer, 3.2 A; EMSA: RNA + RIG-I 30 min RT, then Riplet 30 min RT, 6% native PAGE, GelRed; protein storage buffer 25 mM HEPES pH 7.4, 200 mM NaCl, 5% glycerol, 5 mM BME (bindi); details: protein: recombinant;recombinant, tags: N-terminal 6xHis-SUMO, removed by ULP1;N-terminal 6xHis-SUMO, chain copies: 2;2, blunt
T2 sequence 1: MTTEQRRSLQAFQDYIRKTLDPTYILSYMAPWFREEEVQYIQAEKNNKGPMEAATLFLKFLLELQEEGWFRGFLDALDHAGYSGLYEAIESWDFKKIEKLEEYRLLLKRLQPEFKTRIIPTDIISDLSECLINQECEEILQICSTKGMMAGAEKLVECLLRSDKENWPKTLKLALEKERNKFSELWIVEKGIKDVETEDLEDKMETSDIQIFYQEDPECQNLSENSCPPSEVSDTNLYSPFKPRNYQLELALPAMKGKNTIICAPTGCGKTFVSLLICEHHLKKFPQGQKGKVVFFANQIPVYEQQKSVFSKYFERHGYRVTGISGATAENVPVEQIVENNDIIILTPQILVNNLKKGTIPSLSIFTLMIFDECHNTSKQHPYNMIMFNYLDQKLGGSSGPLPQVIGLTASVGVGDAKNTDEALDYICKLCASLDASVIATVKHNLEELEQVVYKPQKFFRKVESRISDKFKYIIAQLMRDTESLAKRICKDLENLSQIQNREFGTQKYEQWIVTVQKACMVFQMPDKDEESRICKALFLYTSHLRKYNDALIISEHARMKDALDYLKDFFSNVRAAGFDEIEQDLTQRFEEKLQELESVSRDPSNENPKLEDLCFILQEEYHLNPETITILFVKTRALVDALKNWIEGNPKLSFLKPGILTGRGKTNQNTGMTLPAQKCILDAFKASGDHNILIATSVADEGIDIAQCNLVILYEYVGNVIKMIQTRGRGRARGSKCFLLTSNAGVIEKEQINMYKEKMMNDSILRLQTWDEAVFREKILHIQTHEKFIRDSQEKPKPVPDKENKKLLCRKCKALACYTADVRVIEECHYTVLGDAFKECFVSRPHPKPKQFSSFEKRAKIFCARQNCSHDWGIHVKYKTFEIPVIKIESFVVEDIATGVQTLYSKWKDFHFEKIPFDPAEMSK
T2 sequence 2: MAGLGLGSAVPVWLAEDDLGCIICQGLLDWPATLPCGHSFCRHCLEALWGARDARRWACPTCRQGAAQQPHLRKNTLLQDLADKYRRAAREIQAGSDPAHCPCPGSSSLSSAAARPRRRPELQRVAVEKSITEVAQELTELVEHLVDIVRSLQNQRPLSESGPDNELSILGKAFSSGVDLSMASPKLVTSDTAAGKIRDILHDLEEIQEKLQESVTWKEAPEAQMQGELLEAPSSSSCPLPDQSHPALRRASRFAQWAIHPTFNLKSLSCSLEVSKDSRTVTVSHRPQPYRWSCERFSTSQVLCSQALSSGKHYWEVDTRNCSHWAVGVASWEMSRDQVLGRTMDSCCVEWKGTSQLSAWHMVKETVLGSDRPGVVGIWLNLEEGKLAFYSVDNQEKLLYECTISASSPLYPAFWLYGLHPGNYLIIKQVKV

[4] = biological target: T3, biotinylated Avi-tagged RIG-I (Retinoic acid inducible gene-I) (human, UniProt O95786 1-925, biotin on the Avi tag (by BirA)); assay: SPR; biotinylated RIG-I pre-incubated with p3dsRNA24 (2.4:1, 4 °C overnight; two RIG-I per RNA) immobilised on a streptavidin SADH chip; Riplet constructs as analyte in HBS-EP+, 50 µl/min, dissociation 180 s, OneStep mode, 1:1 model; details: both partners purified
T3 construct: RIG-I, human, full-length protein; Used alone (apo), pre-incubated with the RNA p3SLR14 (one RIG-I per RNA) or with p3dsRNA24 (two RIG-I per RNA); also called Avi-RIG-I; Apo-RIG-I; source: E. coli Rosetta 2(DE3), purified (Ni-NTA, heparin, SEC), biotinylated by BirA, SEC; not shown: His6, N-terminal, cleaved; SUMO, N-terminal, cleaved
T3 sequence (looked up): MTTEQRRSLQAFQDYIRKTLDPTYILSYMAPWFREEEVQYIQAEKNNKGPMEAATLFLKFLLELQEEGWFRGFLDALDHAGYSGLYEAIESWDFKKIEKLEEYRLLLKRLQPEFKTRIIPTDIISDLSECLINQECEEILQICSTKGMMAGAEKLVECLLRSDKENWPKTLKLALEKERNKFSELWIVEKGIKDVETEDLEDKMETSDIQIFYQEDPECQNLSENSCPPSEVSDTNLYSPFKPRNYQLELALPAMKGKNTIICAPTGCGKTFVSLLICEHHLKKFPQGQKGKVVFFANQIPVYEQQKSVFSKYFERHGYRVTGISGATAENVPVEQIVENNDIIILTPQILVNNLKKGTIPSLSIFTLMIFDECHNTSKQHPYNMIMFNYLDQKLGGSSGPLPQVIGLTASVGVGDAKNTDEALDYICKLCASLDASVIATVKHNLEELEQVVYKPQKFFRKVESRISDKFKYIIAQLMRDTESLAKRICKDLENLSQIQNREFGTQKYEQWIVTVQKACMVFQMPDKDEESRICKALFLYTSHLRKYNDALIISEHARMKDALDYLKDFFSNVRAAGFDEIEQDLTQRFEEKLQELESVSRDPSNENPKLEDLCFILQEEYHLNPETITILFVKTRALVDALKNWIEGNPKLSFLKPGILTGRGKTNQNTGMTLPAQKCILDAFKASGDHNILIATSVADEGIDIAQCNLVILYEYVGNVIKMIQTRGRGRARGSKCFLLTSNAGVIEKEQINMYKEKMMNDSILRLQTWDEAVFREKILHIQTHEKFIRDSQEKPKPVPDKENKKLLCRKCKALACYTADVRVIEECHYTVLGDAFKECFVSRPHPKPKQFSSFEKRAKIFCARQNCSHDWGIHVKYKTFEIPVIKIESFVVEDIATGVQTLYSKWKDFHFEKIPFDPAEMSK

[5] = biological target: T3, biotinylated Avi-tagged RIG-I (Retinoic …); assay: SPR; biotinylated apo-RIG-I (no RNA) immobilised on a streptavidin SADH chip; Riplet constructs as analyte in HBS-EP+, 50 µl/min, dissociation 180 s, OneStep mode, 1:1 model; details: both partners purified
[6] = biological target: T3, biotinylated Avi-tagged RIG-I (Retinoic …); assay: SPR; biotinylated RIG-I pre-incubated with p3SLR14 (1:1.5, 4 °C overnight) immobilised on a streptavidin SADH chip; Riplet constructs as analyte in HBS-EP+, 50 µl/min, dissociation 180 s, OneStep mode, 1:1 model; details: both partners purified

B2: p3dsRNA24 (dsRNA)
RNA 1: GGACGUACGUUUCGCGACUGUAGA
RNA 2: UCUACAGUCGCGAAACGUACGUCC
modifications: 5'-triphosphate on both strands
binding result [3]: binds

B3: Riplet-PrySpry (249-432) (domain or fragment, human, UniProt Q8IUD6 249-432, looked up)
chain: RRASRFAQWAIHPTFNLKSLSCSLEVSKDSRTVTVSHRPQPYRWSCERFSTSQVLCSQALSSGKHYWEVDTRNCSHWAVGVASWEMSRDQVLGRTMDSCCVEWKGTSQLSAWHMVKETVLGSDRPGVVGIWLNLEEGKLAFYSVDNQEKLLYECTISASSPLYPAFWLYGLHPGNYLIIKQVKV
notes: Riplet, human, PrySpry domain, residues 249-432; also called Pspry; source: E. coli Rosetta 2(DE3), purified (Ni-NTA, SEC); not shown: His6, N-terminal, cleaved; SUMO, N-terminal, cleaved
koff [4]: 0.19 s⁻¹
kon [4]: 130000 M⁻¹ s⁻¹
Kd [5]: 3100 nM
koff [5]: 0.18 s⁻¹
kon [5]: 60000 M⁻¹ s⁻¹
Kd [6]: 3600 nM
koff [6]: 0.18 s⁻¹
kon [6]: 51000 M⁻¹ s⁻¹

Now from value to binder:

Kd [1]: 10 nM
Kd [2]: 700 to 1200 nM
B1: Riplet-ΔRING (94-432) (domain or fragment, human, UniProt Q8IUD6 94-432, looked up)
chain: AGSDPAHCPCPGSSSLSSAAARPRRRPELQRVAVEKSITEVAQELTELVEHLVDIVRSLQNQRPLSESGPDNELSILGKAFSSGVDLSMASPKLVTSDTAAGKIRDILHDLEEIQEKLQESVTWKEAPEAQMQGELLEAPSSSSCPLPDQSHPALRRASRFAQWAIHPTFNLKSLSCSLEVSKDSRTVTVSHRPQPYRWSCERFSTSQVLCSQALSSGKHYWEVDTRNCSHWAVGVASWEMSRDQVLGRTMDSCCVEWKGTSQLSAWHMVKETVLGSDRPGVVGIWLNLEEGKLAFYSVDNQEKLLYECTISASSPLYPAFWLYGLHPGNYLIIKQVKV
notes: Riplet, human, residues 94-432 (RING domain deleted; CC and PrySpry domains kept); pET-SUMO-Riplet-ΔRING(94-432); the PDB entries are of the full-length parent; source: E. coli Rosetta 2(DE3), purified (Ni-NTA, ULP1 digestion, size exclusion); not shown: 6xHis, N-terminal, cleaved; SUMO, N-terminal, cleaved

Kd [1]: 1400 nM
B4: Riplet-PrySpry (249-432) (domain or fragment, human, UniProt Q8IUD6 249-432, looked up)
chain: RRASRFAQWAIHPTFNLKSLSCSLEVSKDSRTVTVSHRPQPYRWSCERFSTSQVLCSQALSSGKHYWEVDTRNCSHWAVGVASWEMSRDQVLGRTMDSCCVEWKGTSQLSAWHMVKETVLGSDRPGVVGIWLNLEEGKLAFYSVDNQEKLLYECTISASSPLYPAFWLYGLHPGNYLIIKQVKV
notes: Riplet, human, PrySpry domain, residues 249-432 (RING and CC domains deleted); pET-SUMO-Riplet-PrySpry(249-432); the PDB entries are of the full-length parent; also called PrySpry domain alone; source: E. coli Rosetta 2(DE3), purified (Ni-NTA, ULP1 digestion, size exclusion); not shown: 6xHis, N-terminal, cleaved; SUMO, N-terminal, cleaved
